Source: publication PMC10713552 (Communications Biology, 2023)

Assays:
[1] = target: D614G-Hexapro (WT) spike ectodomain (SARS-CoV-2 Wuhan-Hu-1 D614G, D614G); experiment: BLI
[2] = target: Omicron BA.1 spike protein ectodomain (BLI) (SARS-CoV-2 Omicron BA.1, strain); experiment: BLI

Row | Binder | Kd [1] | koff [1] | kon [1] | Kd [2] | koff [2] | kon [2]
1 | 0370-N3_T65R (antibody, V domains shown, source: Expi293F, transfected) VH: QVQLQQWGPGLVNPSETLSLTCSVSGGSFATENYYWSWIRQHPGEGLEWIGNIYFSGNRYYNPSLNNRFTISFDTSKNHLSLKLPSVTAADTAVYYCARGTIYFDRSGYRRVDPFHIWGQGTMVIVSS VL: not shown | 111 nM | 3.63e-05 s⁻¹ | 328 M⁻¹ s⁻¹ | 12.1 nM | 0.000266 s⁻¹ | 22000 M⁻¹ s⁻¹
2 | 0331-LN3_T65Q (antibody, V domains shown, source: Expi293F, transfected) VH: QVQLQQWGPGLVNPSETLSLTCSVSGGSFATENYYWSWIRQHPGEGLEWIGNIYFSGNQYYNPSLNNRFTISFDTSKNHLSLKLPSVTAADTAVYYCARGTIYFDLSGYRRVDPFHIWGQGTMVIVSS VL: not shown | 1.18 nM | 0.00083 s⁻¹ | 703000 M⁻¹ s⁻¹ | 38.2 nM | 0.00223 s⁻¹ | 58400 M⁻¹ s⁻¹
3 | 0345-MN3_T65K (antibody, V domains shown, source: Expi293F, transfected) VH: QVQLQQWGPGLVNPSETLSLTCSVSGGSFATENYYWSWIRQHPGEGLEWIGNIYFSGNKYYNPSLNNRFTISFDTSKNHLSLKLPSVTAADTAVYYCARGTIYFDMSGYRRVDPFHIWGQGTMVIVSS VL: not shown | 346 nM | 7.97e-05 s⁻¹ | 230 M⁻¹ s⁻¹ | 41.4 nM | 0.00172 s⁻¹ | 41600 M⁻¹ s⁻¹
4 | 0360-N3_T65F (antibody, V domains shown, source: Expi293F, transfected) VH: QVQLQQWGPGLVNPSETLSLTCSVSGGSFATENYYWSWIRQHPGEGLEWIGNIYFSGNFYYNPSLNNRFTISFDTSKNHLSLKLPSVTAADTAVYYCARGTIYFDRSGYRRVDPFHIWGQGTMVIVSS VL: not shown | 355 nM | 0.000217 s⁻¹ | 612 M⁻¹ s⁻¹ | 18.5 nM | 0.000659 s⁻¹ | 35700 M⁻¹ s⁻¹
5 | 0350-MN3_T65Q (antibody, V domains shown, source: Expi293F, transfected) VH: QVQLQQWGPGLVNPSETLSLTCSVSGGSFATENYYWSWIRQHPGEGLEWIGNIYFSGNQYYNPSLNNRFTISFDTSKNHLSLKLPSVTAADTAVYYCARGTIYFDMSGYRRVDPFHIWGQGTMVIVSS VL: not shown | 643 nM | 0.00015 s⁻¹ | 233 M⁻¹ s⁻¹ | 38.5 nM | 0.000871 s⁻¹ | 22700 M⁻¹ s⁻¹
6 | 0374-N3_T65W (antibody, V domains shown, source: Expi293F, transfected) VH: QVQLQQWGPGLVNPSETLSLTCSVSGGSFATENYYWSWIRQHPGEGLEWIGNIYFSGNWYYNPSLNNRFTISFDTSKNHLSLKLPSVTAADTAVYYCARGTIYFDRSGYRRVDPFHIWGQGTMVIVSS VL: not shown |  |  | 190 M⁻¹ s⁻¹ | 42.5 nM | 0.000694 s⁻¹ | 16300 M⁻¹ s⁻¹
7 | 0340-MN3_T65E (antibody, V domains shown, source: Expi293F, transfected) VH: QVQLQQWGPGLVNPSETLSLTCSVSGGSFATENYYWSWIRQHPGEGLEWIGNIYFSGNEYYNPSLNNRFTISFDTSKNHLSLKLPSVTAADTAVYYCARGTIYFDMSGYRRVDPFHIWGQGTMVIVSS VL: not shown | 371 nM | 7.27e-05 s⁻¹ | 196 M⁻¹ s⁻¹ | 48.2 nM | 0.0021 s⁻¹ | 43700 M⁻¹ s⁻¹
8 | 0347-MN3_T65M (antibody, V domains shown, source: Expi293F, transfected) VH: QVQLQQWGPGLVNPSETLSLTCSVSGGSFATENYYWSWIRQHPGEGLEWIGNIYFSGNMYYNPSLNNRFTISFDTSKNHLSLKLPSVTAADTAVYYCARGTIYFDMSGYRRVDPFHIWGQGTMVIVSS VL: not shown | 880 nM | 0.000233 s⁻¹ | 264 M⁻¹ s⁻¹ | 39.7 nM | 0.00209 s⁻¹ | 52700 M⁻¹ s⁻¹
9 | 0312-IN3_T65Q (antibody, V domains shown, source: Expi293F, transfected) VH: QVQLQQWGPGLVNPSETLSLTCSVSGGSFATENYYWSWIRQHPGEGLEWIGNIYFSGNQYYNPSLNNRFTISFDTSKNHLSLKLPSVTAADTAVYYCARGTIYFDISGYRRVDPFHIWGQGTMVIVSS VL: not shown | 2.23 nM | 0.000511 s⁻¹ | 229000 M⁻¹ s⁻¹ | 13.2 nM | 0.000887 s⁻¹ | 67300 M⁻¹ s⁻¹
10 | 0309-IN3_T65M (antibody, V domains shown, source: Expi293F, transfected) VH: QVQLQQWGPGLVNPSETLSLTCSVSGGSFATENYYWSWIRQHPGEGLEWIGNIYFSGNMYYNPSLNNRFTISFDTSKNHLSLKLPSVTAADTAVYYCARGTIYFDISGYRRVDPFHIWGQGTMVIVSS VL: not shown |  |  | 184 M⁻¹ s⁻¹ | 15.7 nM | 0.00102 s⁻¹ | 64800 M⁻¹ s⁻¹
11 | 0373-N3_T65V (antibody, V domains shown, source: Expi293F, transfected) VH: QVQLQQWGPGLVNPSETLSLTCSVSGGSFATENYYWSWIRQHPGEGLEWIGNIYFSGNVYYNPSLNNRFTISFDTSKNHLSLKLPSVTAADTAVYYCARGTIYFDRSGYRRVDPFHIWGQGTMVIVSS VL: not shown | 324 nM | 0.000461 s⁻¹ | 1420 M⁻¹ s⁻¹ | 16 nM | 0.000565 s⁻¹ | 35200 M⁻¹ s⁻¹
12 | 0377-YN3_T65D (antibody, V domains shown, source: Expi293F, transfected) VH: QVQLQQWGPGLVNPSETLSLTCSVSGGSFATENYYWSWIRQHPGEGLEWIGNIYFSGNDYYNPSLNNRFTISFDTSKNHLSLKLPSVTAADTAVYYCARGTIYFDYSGYRRVDPFHIWGQGTMVIVSS VL: not shown | 634 nM | 0.000153 s⁻¹ | 242 M⁻¹ s⁻¹ | 13.4 nM | 0.000269 s⁻¹ | 20100 M⁻¹ s⁻¹
13 | 0319-LN3_T65A (antibody, V domains shown, source: Expi293F, transfected) VH: QVQLQQWGPGLVNPSETLSLTCSVSGGSFATENYYWSWIRQHPGEGLEWIGNIYFSGNAYYNPSLNNRFTISFDTSKNHLSLKLPSVTAADTAVYYCARGTIYFDLSGYRRVDPFHIWGQGTMVIVSS VL: not shown | 244 nM | 0.000836 s⁻¹ | 3430 M⁻¹ s⁻¹ | 59.6 nM | 0.00229 s⁻¹ | 38400 M⁻¹ s⁻¹
14 | 0317-IN3_T65W (antibody, V domains shown, source: Expi293F, transfected) VH: QVQLQQWGPGLVNPSETLSLTCSVSGGSFATENYYWSWIRQHPGEGLEWIGNIYFSGNWYYNPSLNNRFTISFDTSKNHLSLKLPSVTAADTAVYYCARGTIYFDISGYRRVDPFHIWGQGTMVIVSS VL: not shown | 1.41 nM | 0.000282 s⁻¹ | 199000 M⁻¹ s⁻¹ | 16.3 nM | 0.000834 s⁻¹ | 51200 M⁻¹ s⁻¹
15 | 0330-LN3_T65P (antibody, V domains shown, source: Expi293F, transfected) VH: QVQLQQWGPGLVNPSETLSLTCSVSGGSFATENYYWSWIRQHPGEGLEWIGNIYFSGNPYYNPSLNNRFTISFDTSKNHLSLKLPSVTAADTAVYYCARGTIYFDLSGYRRVDPFHIWGQGTMVIVSS VL: not shown | 686 nM | 0.00219 s⁻¹ | 3190 M⁻¹ s⁻¹ | 32.6 nM | 0.00229 s⁻¹ | 70200 M⁻¹ s⁻¹
16 | 0338-MN3_T65A (antibody, V domains shown, source: Expi293F, transfected) VH: QVQLQQWGPGLVNPSETLSLTCSVSGGSFATENYYWSWIRQHPGEGLEWIGNIYFSGNAYYNPSLNNRFTISFDTSKNHLSLKLPSVTAADTAVYYCARGTIYFDMSGYRRVDPFHIWGQGTMVIVSS VL: not shown | 373 nM | 0.000121 s⁻¹ | 325 M⁻¹ s⁻¹ | 25 nM | 0.00154 s⁻¹ | 61800 M⁻¹ s⁻¹
17 | 0341-MN3_T65F (antibody, V domains shown, source: Expi293F, transfected) VH: QVQLQQWGPGLVNPSETLSLTCSVSGGSFATENYYWSWIRQHPGEGLEWIGNIYFSGNFYYNPSLNNRFTISFDTSKNHLSLKLPSVTAADTAVYYCARGTIYFDMSGYRRVDPFHIWGQGTMVIVSS VL: not shown | 146 nM | 0.000179 s⁻¹ | 1230 M⁻¹ s⁻¹ | 41.2 nM | 0.00171 s⁻¹ | 41500 M⁻¹ s⁻¹
18 | 0327-LN3_T65L (antibody, V domains shown, source: Expi293F, transfected) VH: QVQLQQWGPGLVNPSETLSLTCSVSGGSFATENYYWSWIRQHPGEGLEWIGNIYFSGNLYYNPSLNNRFTISFDTSKNHLSLKLPSVTAADTAVYYCARGTIYFDLSGYRRVDPFHIWGQGTMVIVSS VL: not shown | 183 nM | 0.00127 s⁻¹ | 6950 M⁻¹ s⁻¹ | 58.6 nM | 0.00147 s⁻¹ | 25100 M⁻¹ s⁻¹
19 | 0335-LN3_T65V (antibody, V domains shown, source: Expi293F, transfected) VH: QVQLQQWGPGLVNPSETLSLTCSVSGGSFATENYYWSWIRQHPGEGLEWIGNIYFSGNVYYNPSLNNRFTISFDTSKNHLSLKLPSVTAADTAVYYCARGTIYFDLSGYRRVDPFHIWGQGTMVIVSS VL: not shown | 135 nM | 0.000502 s⁻¹ | 3730 M⁻¹ s⁻¹ | 49.2 nM | 0.00196 s⁻¹ | 39700 M⁻¹ s⁻¹
20 | 0307-IN3_T65K (antibody, V domains shown, source: Expi293F, transfected) VH: QVQLQQWGPGLVNPSETLSLTCSVSGGSFATENYYWSWIRQHPGEGLEWIGNIYFSGNKYYNPSLNNRFTISFDTSKNHLSLKLPSVTAADTAVYYCARGTIYFDISGYRRVDPFHIWGQGTMVIVSS VL: not shown | 0.208 nM | 5.6e-05 s⁻¹ | 269000 M⁻¹ s⁻¹ | 31.7 nM | 0.000872 s⁻¹ | 27500 M⁻¹ s⁻¹
21 | 0388-YN3_T65Q (antibody, V domains shown, source: Expi293F, transfected) VH: QVQLQQWGPGLVNPSETLSLTCSVSGGSFATENYYWSWIRQHPGEGLEWIGNIYFSGNQYYNPSLNNRFTISFDTSKNHLSLKLPSVTAADTAVYYCARGTIYFDYSGYRRVDPFHIWGQGTMVIVSS VL: not shown | 1910 nM | 0.00186 s⁻¹ | 973 M⁻¹ s⁻¹ | 37.7 nM | 0.00058 s⁻¹ | 15400 M⁻¹ s⁻¹
22 | 0348-MN3_T65N (antibody, V domains shown, source: Expi293F, transfected) VH: QVQLQQWGPGLVNPSETLSLTCSVSGGSFATENYYWSWIRQHPGEGLEWIGNIYFSGNNYYNPSLNNRFTISFDTSKNHLSLKLPSVTAADTAVYYCARGTIYFDMSGYRRVDPFHIWGQGTMVIVSS VL: not shown | 130 nM | 9.93e-05 s⁻¹ | 765 M⁻¹ s⁻¹ | 43 nM | 0.00196 s⁻¹ | 45700 M⁻¹ s⁻¹
23 | 0383-YN3_T65K (antibody, V domains shown, source: Expi293F, transfected) VH: QVQLQQWGPGLVNPSETLSLTCSVSGGSFATENYYWSWIRQHPGEGLEWIGNIYFSGNKYYNPSLNNRFTISFDTSKNHLSLKLPSVTAADTAVYYCARGTIYFDYSGYRRVDPFHIWGQGTMVIVSS VL: not shown | 682 nM | 0.000178 s⁻¹ | 261 M⁻¹ s⁻¹ | 50.6 nM | 0.00099 s⁻¹ | 19600 M⁻¹ s⁻¹
24 | 0318-IN3_T65Y (antibody, V domains shown, source: Expi293F, transfected) VH: QVQLQQWGPGLVNPSETLSLTCSVSGGSFATENYYWSWIRQHPGEGLEWIGNIYFSGNYYYNPSLNNRFTISFDTSKNHLSLKLPSVTAADTAVYYCARGTIYFDISGYRRVDPFHIWGQGTMVIVSS VL: not shown | 1.07 nM | 0.000222 s⁻¹ | 207000 M⁻¹ s⁻¹ | 29.4 nM | 0.00117 s⁻¹ | 39800 M⁻¹ s⁻¹
